Measurements reported in publication PMC6155126 (Nature Communications, 2018).

Molecular target: FLAG-Pol λ-WT (human, UniProt Q9UGP5 1-575)
Assay: cell-based or functional assay

B1: FLAG-XRCC4 (natural protein, human, UniProt Q13426 1-336, looked up)
chain: MERKISRIHLVSEPSITHFLQVSWEKTLESGFVITLTDGHSAWTGTVSESEISQEADDMAMEKGKYVGELRKALLSGAGPADVYTFNFSKESCYFFFEKNLKDVSFRLGSFNLEKVENPAEVIRELICYCLDTIAENQAKNEHLQKENERLLRDWNDVQGRFEKCVSAKEALETDLYKRFILVLNEKKTKIRSLHNKLLNAAQEREKDIKQEGETAICSEMTADRDPVYDESTDEESENQTDLSGLASAAVSKDDSIISSLDVTDIAPSRKRRQRMQRNLGTEPKMAPQENQLQEKENSRPDSSLPETSKKEHISAENMSLETLRNSSPEDLFDEI
  Pol λ-dependent gap filling synthesis on a 5nt-gapped dsDNA (33-mer), stimulation by added protein over a concentration series: ≤ 10 fold
